Reference: article PMC5582858, “The yeast kinesin-5 Cin8 interacts with the microtubule in a noncanonical manner” (The Journal of Biological Chemistry, 2017)

Experiments:
[1] = molecular target: T1, Subtilisin-treated microtubules (lacking the C-terminal tails of α- and β-tubulin) (bovine, UniProt Q6B856 1-445, Purified bovine brain tubulin is an isotype mixture; the representative isotypes alpha-1B and beta-2B are assumed, as the paper states none. Cleavage limits are not given; the conventional major sub); assay: co-sedimentation; 2 μM kinesin, 0–4 μM paclitaxel-stabilised microtubules, no added nucleotide, low ionic strength (21 mM; ATPase buffer with 7.5 mM KCl), 298 K, 100,000 × g 30 min; supernatant and pellet by SDS-PAGE; apparent constants, fit to Equation 3; details: both partners purified
T1 sequence (chain, as listed by the source, chain 1 of 2): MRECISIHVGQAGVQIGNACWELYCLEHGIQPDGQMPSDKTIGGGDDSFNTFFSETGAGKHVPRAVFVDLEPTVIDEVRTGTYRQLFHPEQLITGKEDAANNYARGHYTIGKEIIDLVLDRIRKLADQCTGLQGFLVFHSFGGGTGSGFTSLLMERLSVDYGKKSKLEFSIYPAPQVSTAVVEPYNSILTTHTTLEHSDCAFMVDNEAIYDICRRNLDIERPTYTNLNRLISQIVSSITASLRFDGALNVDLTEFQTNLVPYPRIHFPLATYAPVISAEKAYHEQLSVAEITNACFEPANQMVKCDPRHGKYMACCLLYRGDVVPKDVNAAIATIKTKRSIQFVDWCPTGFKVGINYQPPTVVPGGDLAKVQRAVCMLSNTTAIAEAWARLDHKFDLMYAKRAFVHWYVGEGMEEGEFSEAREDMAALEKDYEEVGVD
T1 sequence (Q6B856 1-433, chain 2 of 2): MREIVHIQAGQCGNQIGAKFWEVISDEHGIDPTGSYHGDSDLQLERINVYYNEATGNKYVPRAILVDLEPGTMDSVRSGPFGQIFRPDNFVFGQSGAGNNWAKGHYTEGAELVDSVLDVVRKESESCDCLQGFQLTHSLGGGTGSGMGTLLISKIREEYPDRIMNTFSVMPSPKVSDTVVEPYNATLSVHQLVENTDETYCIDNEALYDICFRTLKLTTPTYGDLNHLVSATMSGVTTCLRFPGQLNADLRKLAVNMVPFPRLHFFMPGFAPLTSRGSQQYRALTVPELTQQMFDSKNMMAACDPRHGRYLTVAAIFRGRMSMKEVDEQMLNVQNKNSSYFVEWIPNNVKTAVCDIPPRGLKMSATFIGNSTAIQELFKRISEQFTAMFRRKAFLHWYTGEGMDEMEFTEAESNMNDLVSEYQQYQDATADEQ

[2] = molecular target: T1, Subtilisin-treated microtubules …; assay: co-sedimentation; 2 μM kinesin, 0–4 μM paclitaxel-stabilised microtubules, no added nucleotide, high ionic strength (88 mM; ATPase buffer with 75 mM KCl), 298 K, 100,000 × g 30 min; supernatant and pellet by SDS-PAGE; apparent constants, fit to Equation 3; details: both partners purified

B1: Cin8-trx (Cin8 motor domain, residues 70–535, fused to N-terminal thioredoxin (TrxA), His6, TEV cleavage and Arg9 tags) (domain or fragment, S. cerevisiae, UniProt P27895 70-535, looked up)
chain: ISINTTGDTGITAQMNAKRYTVDKVFGPGASQDLIFDEVAGPLFQDFIKGYNCTVLVYGMTSTGKTYTMTGDEKLYNGELSDAAGIIPRVLLKLFDTLELQQNDYVVKCSFIELYNEELKDLLDSNSNGSSNTGFDGQFMKKLRIFDSSTANNTTSNSASSSRSNSRNSSPRSLNDLTPKAALLRKRLRTKSLPNTIKQQYQQQQAVNSRNNSSSNSGSTTNNASSNTNTNNGQRSSMAPNDQTNGIYIQNLQEFHITNAMEGLNLLQKGLKHRQVASTKMNDFSSRSHTIFTITLYKKHQDELFRISKMNLVDLAGSENINRSGALNQRAKEAGSINQSLLTLGRVINALVDKSGHIPFRESKLTRLLQDSLGGNTKTALIATISPAKVTSEETCSTLEYASKAKNIKNKPQLGSFIMKDILVKNITMELAKIKSDLLSTKSKEGIYMSQDHYKNLNSDLESYKN
notes: Kinesin-5 Cin8, S. cerevisiae, motor domain, residues 70–535; Expected mass 67.3 kDa; source: E. coli B834(DE3) with pRILP, purified (SP-Sepharose, nickel-nitrilotriacetic acid, Sephadex G-25); not shown: thioredoxin (TrxA), N-terminal, kept; His6, N-terminal, kept; TEV cleavage tag, N-terminal, kept; Arg9, N-terminal, kept
- stoichiometry N [1]: 5.4 ± 0.4
- stoichiometry N [2]: 2.2 ± 0.2
